± gives the uncertainty stated by the source.

This data set can be described thus: abundance fitness (aPCA) (normalised: wild type 0, dead -1); higher = more abundant; growth selection in yeast, the domain comes from the species named. The settings on record: Homo sapiens.
The substance “Lipoamide acyltransferase component of branched-chain alpha-keto acid dehydrogenase complex, mitochondrial E210A, P11182” yielded an abundance fitness of 0.021 ± 0.038. The figure for “Lipoamide acyltransferase component of branched-chain alpha-keto acid dehydrogenase complex, mitochondrial E210C, P11182” is -0.048 ± 0.053. “Lipoamide acyltransferase component of branched-chain alpha-keto acid dehydrogenase complex, mitochondrial E210D, P11182” came in with an abundance fitness of -0.006 ± 0.058. “Lipoamide acyltransferase component of branched-chain alpha-keto acid dehydrogenase complex, mitochondrial E210F, P11182” showed an abundance fitness of -0.24 ± 0.066. Under “Lipoamide acyltransferase component of branched-chain alpha-keto acid dehydrogenase complex, mitochondrial E210H, P11182” stands -0.319 ± 0.15. The figure for “Lipoamide acyltransferase component of branched-chain alpha-keto acid dehydrogenase complex, mitochondrial E210I, P11182” is -0.239 ± 0.055; for “Lipoamide acyltransferase component of branched-chain alpha-keto acid dehydrogenase complex, mitochondrial E210K, P11182” it is 0.034 ± 0.072; for “Lipoamide acyltransferase component of branched-chain alpha-keto acid dehydrogenase complex, mitochondrial E210L, P11182” it is -0.133 ± 0.041. Take “Lipoamide acyltransferase component of branched-chain alpha-keto acid dehydrogenase complex, mitochondrial E210M, P11182”: the abundance fitness was -0.109 ± 0.044. Under “Lipoamide acyltransferase component of branched-chain alpha-keto acid dehydrogenase complex, mitochondrial E210N, P11182” stands -0.061 ± 0.08; under “Lipoamide acyltransferase component of branched-chain alpha-keto acid dehydrogenase complex, mitochondrial E210P, P11182”, -0.081 ± 0.056.

For the substance “Lipoamide acyltransferase component of branched-chain alpha-keto acid dehydrogenase complex, mitochondrial E210Q, P11182”, the abundance fitness is -0.042 ± 0.053. In turn, “Lipoamide acyltransferase component of branched-chain alpha-keto acid dehydrogenase complex, mitochondrial E210R, P11182” gave an abundance fitness of 0.008 ± 0.039.

The substance “Lipoamide acyltransferase component of branched-chain alpha-keto acid dehydrogenase complex, mitochondrial E210S, P11182” displayed an abundance fitness of -0.019 ± 0.042. Under “Lipoamide acyltransferase component of branched-chain alpha-keto acid dehydrogenase complex, mitochondrial E210T, P11182” stands -0.041 ± 0.056. As for “Lipoamide acyltransferase component of branched-chain alpha-keto acid dehydrogenase complex, mitochondrial G193A, P11182”, the abundance fitness is -0.199 ± 0.039. Under “Lipoamide acyltransferase component of branched-chain alpha-keto acid dehydrogenase complex, mitochondrial G193C, P11182” stands -0.647 ± 0.059. “Lipoamide acyltransferase component of branched-chain alpha-keto acid dehydrogenase complex, mitochondrial G193D, P11182” returned an abundance fitness of -0.773 ± 0.088. Under “Lipoamide acyltransferase component of branched-chain alpha-keto acid dehydrogenase complex, mitochondrial G193E, P11182” stands -0.706 ± 0.067. As for “Lipoamide acyltransferase component of branched-chain alpha-keto acid dehydrogenase complex, mitochondrial G193H, P11182”, the abundance fitness was -0.908 ± 0.2. In turn, “Lipoamide acyltransferase component of branched-chain alpha-keto acid dehydrogenase complex, mitochondrial G193I, P11182” had an abundance fitness of -0.951 ± 0.12. The figure for “Lipoamide acyltransferase component of branched-chain alpha-keto acid dehydrogenase complex, mitochondrial G193K, P11182” is -0.732 ± 0.057; for “Lipoamide acyltransferase component of branched-chain alpha-keto acid dehydrogenase complex, mitochondrial G193L, P11182” it is -0.863 ± 0.061. Under “Lipoamide acyltransferase component of branched-chain alpha-keto acid dehydrogenase complex, mitochondrial G193M, P11182” stands -0.694 ± 0.073; under “Lipoamide acyltransferase component of branched-chain alpha-keto acid dehydrogenase complex, mitochondrial G193P, P11182”, -0.08 ± 0.051. Under “Lipoamide acyltransferase component of branched-chain alpha-keto acid dehydrogenase complex, mitochondrial G193Q, P11182” stands -0.573 ± 0.061; under “Lipoamide acyltransferase component of branched-chain alpha-keto acid dehydrogenase complex, mitochondrial G193R, P11182”, -0.692 ± 0.04.

“Lipoamide acyltransferase component of branched-chain alpha-keto acid dehydrogenase complex, mitochondrial G193S, P11182”: the abundance fitness is -0.308 ± 0.056.

Turning to “Lipoamide acyltransferase component of branched-chain alpha-keto acid dehydrogenase complex, mitochondrial G193T, P11182”, the abundance fitness was -0.476 ± 0.047.

Substance “Lipoamide acyltransferase component of branched-chain alpha-keto acid dehydrogenase complex, mitochondrial G193V, P11182” had an abundance fitness of -0.814 ± 0.05. Under “Lipoamide acyltransferase component of branched-chain alpha-keto acid dehydrogenase complex, mitochondrial G193W, P11182” stands -1.06 ± 0.18; under “Lipoamide acyltransferase component of branched-chain alpha-keto acid dehydrogenase complex, mitochondrial G193Y, P11182”, -1.02 ± 0.26; under “Lipoamide acyltransferase component of branched-chain alpha-keto acid dehydrogenase complex, mitochondrial G195A, P11182”, -0.464 ± 0.044.

For “Lipoamide acyltransferase component of branched-chain alpha-keto acid dehydrogenase complex, mitochondrial G195D, P11182”, the abundance fitness was -0.516 ± 0.12. Take “Lipoamide acyltransferase component of branched-chain alpha-keto acid dehydrogenase complex, mitochondrial G195E, P11182”: the abundance fitness is -0.639 ± 0.073. The figure for “Lipoamide acyltransferase component of branched-chain alpha-keto acid dehydrogenase complex, mitochondrial G195H, P11182” is -0.7 ± 0.1; for “Lipoamide acyltransferase component of branched-chain alpha-keto acid dehydrogenase complex, mitochondrial G195I, P11182” it is -0.867 ± 0.15. “Lipoamide acyltransferase component of branched-chain alpha-keto acid dehydrogenase complex, mitochondrial G195K, P11182” gave an abundance fitness of -0.566 ± 0.13. The substance “Lipoamide acyltransferase component of branched-chain alpha-keto acid dehydrogenase complex, mitochondrial G195L, P11182” had an abundance fitness of -0.927 ± 0.055.

“Lipoamide acyltransferase component of branched-chain alpha-keto acid dehydrogenase complex, mitochondrial G195M, P11182” registered an abundance fitness of -0.793 ± 0.16. Substance “Lipoamide acyltransferase component of branched-chain alpha-keto acid dehydrogenase complex, mitochondrial G195N, P11182” had an abundance fitness of -0.611 ± 0.12. Turning to “Lipoamide acyltransferase component of branched-chain alpha-keto acid dehydrogenase complex, mitochondrial G195P, P11182”, the abundance fitness is -0.682 ± 0.07.

As to “Lipoamide acyltransferase component of branched-chain alpha-keto acid dehydrogenase complex, mitochondrial G195Q, P11182”, the abundance fitness was -0.483 ± 0.067. The figure for “Lipoamide acyltransferase component of branched-chain alpha-keto acid dehydrogenase complex, mitochondrial G195R, P11182” is -0.591 ± 0.042; for “Lipoamide acyltransferase component of branched-chain alpha-keto acid dehydrogenase complex, mitochondrial G195S, P11182” it is -0.444 ± 0.08. “Lipoamide acyltransferase component of branched-chain alpha-keto acid dehydrogenase complex, mitochondrial G195T, P11182” displayed an abundance fitness of -0.587 ± 0.066.

These data come from the Human Domainome abundance scans (Beltran et al. 2025).
